Data as given in the supplement of paper PMC9170038.

System: MS2 coat protein
Test: apparent KD of MS2 coat protein; designed switch direction (-1 OFF switch, 1 ON switch): -1; higher = weaker reporter binding
Summary of the method: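 Stalled E. coli RNA polymerase transcribed designed RNA switches on Illumina chips, which were then titrated with SNAP-549-labelled MS2 coat protein, doubling from 0.7 or 1.5 nM to 3 µM. Steps lasted from 0.8–1.5 h at the lowest concentration to 10–20 min at the highest. The apparent KD is each design's median over clusters of curve-fitted normalised fluorescence.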

[1] = input ligand: microRNA oligo, concentration not stated
[2] = Eterna round: R95, input ligand: FMN 200 uM
[3] = Eterna round: R95, input ligand: microRNA oligo, concentration not stated
[4] = Eterna round: R95, input ligand: none

Sequence	apparent KD of MS2 coat protein (input ligand: FMN 200 uM) [µM]	apparent KD of MS2 coat protein [1] [µM]	apparent KD of MS2 coat protein (input ligand: none) [µM]	apparent KD of MS2 coat protein [2] [µM]	apparent KD of MS2 coat protein [3] [µM]	apparent KD of MS2 coat protein [4] [µM]
CCCUCACAUGAGGAUCACCCAUGUCAGGAUAUUCAAAGCGCAAAUGCGCCAAAUGCAGGAAGAAGGGACGUGCC [Bisoar] (Eterna round: R96, puzzle: Exclusion 1)	0.0186	0.0103	0.015			
GGAAUGUAAGGAUAUCCGAAAAGCGAGCGAAAGCGAGCAAAGGAGAAGGUACAUGAGGAUCACCCAUGUAAGGG [AK-MS2ROC-r4-exclusion4-12] (Eterna round: R97, puzzle: Exclusion 4)	0.0589		0.768			
CACCUGAAUACAGGAUAUCCUACAUGAGGAUCACCCAUGUAAUAAAUGAGAAUUUCGAAUGUAAUGGAGAAGGGUAGAUAAGGC [Ostracism 88 - Jieux - Exclusion NG 2] (Eterna round: R96, puzzle: Exclusion NG 2)	0.125	0.0828	0.0866			
AAAUUGGUAGAGGAUAUCGCACAGGAAACACUGCGAGAAGGCUGCACAUGAGGAUCACCCAUGUUCAGUUGCGA [EX6 #38] (Eterna round: R97, puzzle: Exclusion 6)	0.0167		0.0148			
CACAAGCUUUUUUGUUGCUUUUUAGUUGGUGUAUGAUAAACAUGAGGAUCACCCAUGUAAUAGAUGCUCGAUCUUUU [JR_SV3TOV2_Sub083] (puzzle: Sensor v3, turn-off variant 2)				0.0245	0.0217	0.027
GGUGCGUAUGUGAGGAUAUGCUGGUCCUUGGAUCGGCAGAAGGCACAUGAGGAUCACCCAUGUGGUGUCGUACA [salish99_Bmod_ex4_087] (puzzle: Brourd's mod of Exclusion 4)					0.232	
UGAGUGCUGCGAGGAUAUACAUGAGGAUCACCCAUGUUUUCCUGUGAGGCAUAGCCUCACAGGAUGUAGAAGGCGCAGUACUCU [Mat - Exclusion NG 2 - Mod of JL - D28] (Eterna round: R96, puzzle: Exclusion NG 2)	0.0106	0.00803	0.0138			
AAGUACCGUCACGAUAGUGAUGGUACAACAAGCAGUGAAACAUGAGGAUCACCCAUGUCCUCAAUUGCUCGUCUUAU [Sensor 3 - 74] (puzzle: Sensor v3, turn-off variant 2)				0.0399	0.195	0.0375
UUUUAACAUGAGGAUCACCCAUGUGAGGAUAUCGUAAUUUAUAUUAAUAUUAAUAAAACGAGAAGGCACAUUUU [JMF 5] (puzzle: Exclusion 1)				0.138	0.143	0.0852
AGUCAGAGAGGAUAUACAUGGGAAAAAAAAGUAAGAUCCCUACAUGAGGAUCACCCAUGUAGAAGGCUCUGACA [Ex2 Design 139: Sub-opt 3] (Eterna round: R96, puzzle: Exclusion 2)		0.0173				
CAGUCAGCGCAGGAUAUCUGCUCGGUGACAGACGGAGAAGGGUGCACAUGAGGAUCACCCAUGUGAAUCUCUAA [Eternabot (Original) Solution 3] (Eterna round: R97, puzzle: Exclusion 6)	0.0214		0.0285			
GGAUCGAGUGUGAGGAUAUGCUGGUCCUUGGAUCAGCAGAAGGCACAUGAGGAUCACCCAUGUGAAGACGGUCC [JL bmx4 3.16] (puzzle: Brourd's mod of Exclusion 4)				0.27	0.0247	0.0258
GAUUAUGCGAGCUUUAGGGACAUGAGGAUCACCCAUGUUCGUCUUAUUGAUCUGGGUACACUAACAUACCUAAAUCU [JMF 20] (puzzle: Sensor v3, turn-off variant 1)				0.0872	0.0997	0.0943
AAACCGCAAGGAUAUUGUGGCGCUGACAUGAGGAUCACCCAUGUGGUGCUAGUCCCGCUGCGAGAAGGUGUGUAAA [Enesedrave] (puzzle: Exclusion 5)					0.0123	
CUGAGGUAGCGGUCCUAUGACAUGAGGAUCACCCAUGUACCUUGCUUUGAGCUAUUUGCUCGUCUUAUGAUUCUCGG [Mat - Sensor v3 - turn-off var 1 - JL Mod - D40] (Eterna round: R96, puzzle: Sensor v3, turn-off variant 1)	0.788	0.655	0.758			
AAAACCAGAGGAUAUGCGCAUAGAUCAGACUUUGUUUCUGAACAUGAGGAUCACCCAUGUAGAAGGCUGUAAAA [Ex2 #82] (Eterna round: R97, puzzle: Exclusion 2)	0.0273		0.0205			
AGAUUAAAAGUAAGGAUAUGAUGCAGGAAACUGCGUCAGAAGGUACAUGAGGAUCACCCAUGUUAAACUAAUUU [Explosion 6 - Jieux - Brourd's mod of Exclusion 4] (Eterna round: R97, puzzle: Brourd's mod of Exclusion 4)	0.0194		0.0144			
